Measured values reported in FireProtDB (doi:10.1016/j.csbj.2015.03.010).

Conditions: Aspergillus aculeatus; pH 4.5; Thermal; DSC; sodium acetate buffer 50 mM; transition: 2; reversible: no; whole UniProt chain shown

B1: Arabinogalactan endo-beta-1,4-galactanase wild type, P48842 (protein)
chain: MFASLLLAALPLLTHAALTYRGADISSLLLLEDEGYSYKNLNGQTQALETILADAGINSIRQRVWVNPSDGSYDLDYNLELAKRVKAAGMSLYLDLHLSDTWADPSDQTTPSGWSTTDLGTLKWQLYNYTLEVCNTFAENDIDIEIISIGNEIRAGLLWPLGETSSYSNIGALLHSGAWGVKDSNLATTPKIMIHLDDGWSWDQQNYFYETVLATGELLSTDFDYFGVSYYPFYSASATLASLKTSLANLQSTYDKPVVVVETNWPVSCPNPAYAFPSDLSSIPFSVAGQQEFLEKLAAVVEATTDGLGVYYWEPAWIGNAGLGSSCADNLMVDYTTDEVYESIETLGEL
  Tm: 60.9 °C
